Consider three molecules from patent publication US11046945B2, “Labeled glutaminase proteins, isolated glutaminase protein mutants, methods of use, and kit” (CORNELL UNIVERSITY, priority 2013, dated 2021).

T1: GAC (Mus musculus, UniProt D3Z7P3)
T1 construct: plasmid (residues 72-603 for GAC, 72-674 for KGA); His-tag with thrombin cleavage site (N, cleaved yes); made in house; host or cells: pET23a vector
T1 sequence (D3Z7P3 72-603 isoform D3Z7P3-2): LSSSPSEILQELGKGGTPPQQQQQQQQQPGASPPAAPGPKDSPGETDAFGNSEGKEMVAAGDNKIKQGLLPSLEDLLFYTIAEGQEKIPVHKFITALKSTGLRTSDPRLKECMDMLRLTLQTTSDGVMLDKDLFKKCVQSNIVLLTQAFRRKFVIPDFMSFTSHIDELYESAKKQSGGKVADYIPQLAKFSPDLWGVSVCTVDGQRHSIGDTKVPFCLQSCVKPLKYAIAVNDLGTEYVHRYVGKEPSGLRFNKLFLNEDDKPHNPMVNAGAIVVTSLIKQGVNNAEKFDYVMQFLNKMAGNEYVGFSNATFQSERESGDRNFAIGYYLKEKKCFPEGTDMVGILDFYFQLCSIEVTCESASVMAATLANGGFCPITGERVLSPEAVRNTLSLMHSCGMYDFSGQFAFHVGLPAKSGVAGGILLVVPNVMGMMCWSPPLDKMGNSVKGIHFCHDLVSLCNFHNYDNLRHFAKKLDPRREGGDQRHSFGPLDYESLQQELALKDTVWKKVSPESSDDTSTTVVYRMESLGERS

B1: QSY® 9-GAC (WT): wild type recombinant mouse GAC labeled with the non-fluorescent acceptor QSY 9 succinimidyl ester (protein)
chain: LSSSPSEILQELGKGGTPPQQQQQQQQQPGASPPAAPGPKDSPGETDAFGNSEGKEMVAAGDNKIKQGLLPSLEDLLFYTIAEGQEKIPVHKFITALKSTGLRTSDPRLKECMDMLRLTLQTTSDGVMLDKDLFKKCVQSNIVLLTQAFRRKFVIPDFMSFTSHIDELYESAKKQSGGKVADYIPQLAKFSPDLWGVSVCTVDGQRHSIGDTKVPFCLQSCVKPLKYAIAVNDLGTEYVHRYVGKEPSGLRFNKLFLNEDDKPHNPMVNAGAIVVTSLIKQGVNNAEKFDYVMQFLNKMAGNEYVGFSNATFQSERESGDRNFAIGYYLKEKKCFPEGTDMVGILDFYFQLCSIEVTCESASVMAATLANGGFCPITGERVLSPEAVRNTLSLMHSCGMYDFSGQFAFHVGLPAKSGVAGGILLVVPNVMGMMCWSPPLDKMGNSVKGIHFCHDLVSLCNFHNYDNLRHFAKKLDPRREGGDQRHSFGPLDYESLQQELALKDTVWKKVSPESSDDTSTTVVYRMESLGERS
B2: QSY® 9-GAC (D391K): QSY 9-labeled constitutive GAC dimer mutant D391K (protein)
chain: LSSSPSEILQELGKGGTPPQQQQQQQQQPGASPPAAPGPKDSPGETDAFGNSEGKEMVAAGDNKIKQGLLPSLEDLLFYTIAEGQEKIPVHKFITALKSTGLRTSDPRLKECMDMLRLTLQTTSDGVMLDKDLFKKCVQSNIVLLTQAFRRKFVIPDFMSFTSHIDELYESAKKQSGGKVADYIPQLAKFSPDLWGVSVCTVDGQRHSIGDTKVPFCLQSCVKPLKYAIAVNDLGTEYVHRYVGKEPSGLRFNKLFLNEDDKPHNPMVNAGAIVVTSLIKQGVNNAEKFDYVMQFLNKMAGNEYVGFSNATFQSERESGKRNFAIGYYLKEKKCFPEGTDMVGILDFYFQLCSIEVTCESASVMAATLANGGFCPITGERVLSPEAVRNTLSLMHSCGMYDFSGQFAFHVGLPAKSGVAGGILLVVPNVMGMMCWSPPLDKMGNSVKGIHFCHDLVSLCNFHNYDNLRHFAKKLDPRREGGDQRHSFGPLDYESLQQELALKDTVWKKVSPESSDDTSTTVVYRMESLGERS
B3: QSY® 9-GAC (K316E, D391K, R459E): QSY 9-labeled monomer GAC mutant K316E/D391K/R459E (protein)
chain: LSSSPSEILQELGKGGTPPQQQQQQQQQPGASPPAAPGPKDSPGETDAFGNSEGKEMVAAGDNKIKQGLLPSLEDLLFYTIAEGQEKIPVHKFITALKSTGLRTSDPRLKECMDMLRLTLQTTSDGVMLDKDLFKKCVQSNIVLLTQAFRRKFVIPDFMSFTSHIDELYESAKKQSGGKVADYIPQLAKFSPDLWGVSVCTVDGQRHSIGDTKVPFCLQSCVKPLKYAIAVNDLGTEYVHRYVGEEPSGLRFNKLFLNEDDKPHNPMVNAGAIVVTSLIKQGVNNAEKFDYVMQFLNKMAGNEYVGFSNATFQSERESGKRNFAIGYYLKEKKCFPEGTDMVGILDFYFQLCSIEVTCESASVMAATLANGGFCPITGERVLSPEAVENTLSLMHSCGMYDFSGQFAFHVGLPAKSGVAGGILLVVPNVMGMMCWSPPLDKMGNSVKGIHFCHDLVSLCNFHNYDNLRHFAKKLDPRREGGDQRHSFGPLDYESLQQELALKDTVWKKVSPESSDDTSTTVVYRMESLGERS

The target in the assay is T1, GAC. As to the kind of experiment: FRET assay of GAC tetramer formation (488-GAC donor, QSY 9-GAC acceptor). The class given is binding. To be noted: 200 nM QSY 9-labeled protein added to 20 nM 488-WT-GAC. An excerpt: A mouse kidney type glutaminase isoform 1 (KGA, NP_001074550.1, which is hereby incorporated by reference in its entirety (SEQ ID NO:7)) and isoform 2 (GAC, NP_001106854.1, which is hereby incorporated by reference in its entirety (SEQ ID NO:3)) plasmid (residues 72-603 for GAC, 72-674 for KGA) was cloned into a pET23a vector containing an N-terminal histidine (His)-tag and thrombin cleavage site. The expressed protein was initially purified using Co^2+ affinity beads (Clontech), after which the His-tag was cleaved with human thrombin (Haemetologic Technologies) overnight at 4° C. and subsequently purified by anion exchange (GE healthcare) and gel filtration chromatography. Purified GAC or KGA was stored in a high salt containing buffer (20 mM Tris-HCl pH 8.5, 500 mM NaCl, 1 mM NaN3) and stored at −80° C. following snap freezing in liquid N2 for long term use. For labeling recombinant GAC or KGA with small molecule probes, 1.5 mg of enzyme was exchanged to 50 mM HEPES pH 7.2, 100 mM NaCl using a PD10 desalting column (GE healthcare) and incubated with 50 μM (5-fold excess of enzyme) of either ALEXA FLUOR® 488 succinimidyl ester or QSY® 9 succinimidyl ester (Molecular Probes) for 1 hr at 4° C. After 1 hr, the labeling reaction was quenched with 150 mM Tris-HCl pH 8.5 and unreacted probe was separated from labeled-enzyme using a PD10 desalting column eluting labeled-GAC back into the high salt containing buffer.
Fluorescence experiments were performed using a Varian Carry Eclipse Fluorometer in the counting mode. Excitation and emission wavelengths were 490 and 520 nm, respectively. Experiments were all prepared as one-mL samples and stirred continuously at 20° C. in 50 mM Tris-Acetate pH 8.5, 0.1 mM ethylenediaminetetraacetic acid (EDTA). For WT GAC titrations in the absence of inorganic phosphate, 10 nM 488-GAC was equilibrated followed by injection of 25 μL of the appropriate concentration of QSY® 9-GAC and was allowed to equilibrate for 10 minutes at which point 75 μL of the appropriate concentration of unlabeled WT GAC was added to give a concentration that was ten-times that of labeled-GAC (i.e., 10-fold excess). For FRET experiments prepared for inorganic phosphate titrations, a similar protocol was followed whereby 10 nM of 488-GAC was equilibrated with 400 nM QSY® 9-GAC followed by injection of 100 μL of the appropriate concentration of K2HPO4 prepared in 50 mM Tris-Acetate (pH=8.5) 0.1 mM EDTA buffer. To test whether purified mutants can form oligomers with WT GAC, 200 nM QSY® 9-D391K-GAC or 200 nM QSY® 9-K316E-D391K-R459E was added to an equilibrated sample of 20 nM 488-WT GAC. Likewise, when assaying the effects of BPTES and 968 on oligomer formation, BPTES or 968 (10 μM or 25 μM, respectively) was added following equilibration of a sample of 200 nM of QSY® 9-WT GAC and 20 nM 488-WT GAC. Both BPTES and 968 were prepared in DMSO, and appropriate dilutions were made so that less than 2% (v/v) DMSO was added to an experimental sample.
For the molecule B1, the “EFRET max / energy transfer on addition to 488-GAC (WT)” value is recorded as “approximately 0.3”.
B2: the “EFRET max / energy transfer on addition to 488-GAC (WT)” value was “only a minor extent of FRET”.
As for B3, the entry is “no observable energy transfer”.
